The values that follow come from PMC10397247.

Holding throughout (assay): two-hybrid library CCNG1;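 also: natural log of median RNA to DNA barcode read ratio; higher means stronger binding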
One assay addresses T1, 4H932-bA.
T1 chain: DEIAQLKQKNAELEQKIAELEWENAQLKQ

The next assay addresses T2, 4H949-bA.
T2 chain: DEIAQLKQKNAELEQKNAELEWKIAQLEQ

Another assay deals with T3, P1bHq.
T3 chain: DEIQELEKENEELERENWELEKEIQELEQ

Another assay addresses T4, 4H3907-bH.
T4 chain: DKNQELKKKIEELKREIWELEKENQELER

A further assay has as its target T5, 4H3601-bH.
T5 chain: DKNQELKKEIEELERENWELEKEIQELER

In a further assay the target is T6, 4H797-bH.
T6 chain: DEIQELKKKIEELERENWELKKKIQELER

Another assay has as its target T7, 4H4038-bH.
T7 chain: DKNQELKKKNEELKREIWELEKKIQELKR

Another assay deals with T8, 4H3381-bN.
T8 chain: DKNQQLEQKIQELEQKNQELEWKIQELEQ

For the next assay, the target named is T9, 4H3297-bN.
T9 chain: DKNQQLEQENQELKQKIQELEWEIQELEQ

Another assay deals with T10, 4H796-bN.
T10 chain: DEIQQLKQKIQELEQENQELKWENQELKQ

For the next assay, the target named is T11, 4H56-bN.
T11 chain: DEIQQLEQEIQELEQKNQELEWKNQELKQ

The next assay concerns the target T12, 4H730-bN.
T12 chain: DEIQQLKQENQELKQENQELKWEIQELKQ

For the next assay, the target named is T13, 4H349-bN.
T13 chain: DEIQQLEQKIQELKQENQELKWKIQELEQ

A further assay concerns the target T14, 4H3364-bN.
T14 chain: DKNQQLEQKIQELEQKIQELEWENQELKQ

In a further assay the target is T15, 4H932-bN.
T15 chain: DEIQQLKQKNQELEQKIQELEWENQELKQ

In the next assay the target is T16, 4H3041-bN.
T16 chain: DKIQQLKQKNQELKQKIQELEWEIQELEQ

Another assay deals with T17, 4H949-bN.
T17 chain: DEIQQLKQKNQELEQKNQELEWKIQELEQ

The next assay deals with T18, 4H3926-bA.
T18 chain: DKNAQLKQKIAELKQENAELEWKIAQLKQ

A further assay has as its target T19, 4H2627-bA.
T19 chain: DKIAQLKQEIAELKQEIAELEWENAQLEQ

The target in a further assay is T20, 4H575-bA.
T20 chain: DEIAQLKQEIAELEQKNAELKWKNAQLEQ

For a further assay, the target named is T21, 4H968-bA.
T21 chain: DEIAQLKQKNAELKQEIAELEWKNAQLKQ

The next assay has as its target T22, 4H780-bA.
T22 chain: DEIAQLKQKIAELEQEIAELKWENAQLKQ

In a further assay the target is T23, 4H855-bA.
T23 chain: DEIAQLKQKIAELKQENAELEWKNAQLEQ

The next assay has as its target T24, 4H797-bA.
T24 chain: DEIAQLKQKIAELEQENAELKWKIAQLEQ

Another assay addresses T25, 4H683-bA.
T25 chain: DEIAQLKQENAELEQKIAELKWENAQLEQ

A further assay has as its target T26, 4H2697-bA.
T26 chain: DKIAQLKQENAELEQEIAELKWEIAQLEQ

The target in another assay is T27, 4H346-bA.
T27 chain: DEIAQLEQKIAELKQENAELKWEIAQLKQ

A further assay concerns the target T28, 4H4073-bA.
T28 chain: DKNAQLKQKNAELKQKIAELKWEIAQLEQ

A further assay addresses T29, 4H918-bA.
T29 chain: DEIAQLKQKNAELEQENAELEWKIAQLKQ

For a further assay, the target named is T30, 4H3112-bA.
T30 chain: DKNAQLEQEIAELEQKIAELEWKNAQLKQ

In the next assay the target is T31, 4H2673-bA.
T31 chain: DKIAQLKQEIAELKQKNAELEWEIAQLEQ

A further assay addresses T32, 4H457-bA.
T32 chain: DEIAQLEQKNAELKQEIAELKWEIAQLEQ

A further assay deals with T33, 4H1831-bA.
T33 chain: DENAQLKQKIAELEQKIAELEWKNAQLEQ

A further assay addresses T34, 4H953-bA.
T34 chain: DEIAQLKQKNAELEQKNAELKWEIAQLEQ

The target in a further assay is T35, 4H2702-bA.
T35 chain: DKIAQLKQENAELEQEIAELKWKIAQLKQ

The target in a further assay is T36, 4H3112-bH.
T36 chain: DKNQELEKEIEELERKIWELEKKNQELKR

Another assay concerns the target T37, 4H3010-bA.
T37 chain: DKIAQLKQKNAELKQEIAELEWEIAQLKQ

The target in the next assay is T38, 4H2586-bA.
T38 chain: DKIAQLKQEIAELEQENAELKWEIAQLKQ

The next assay deals with T39, 4H754-bA.
T39 chain: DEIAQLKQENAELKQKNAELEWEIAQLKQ

A further assay has as its target T40, 4H3427-bA.
T40 chain: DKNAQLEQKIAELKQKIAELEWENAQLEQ

Another assay has as its target T41, 4H908-bN.
T41 chain: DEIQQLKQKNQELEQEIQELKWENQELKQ

For a further assay, the target named is T42, 4H72-bN.
T42 chain: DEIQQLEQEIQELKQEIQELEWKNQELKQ

Another assay has as its target T43, 4H754-bN.
T43 chain: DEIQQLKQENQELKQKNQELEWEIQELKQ

The target of another assay is T44, 4H953-bN.
T44 chain: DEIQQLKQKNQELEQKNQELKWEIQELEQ

The next assay deals with T45, 4H883-bN.
T45 chain: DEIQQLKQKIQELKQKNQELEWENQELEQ

Another assay concerns the target T46, 4H967-bN.
T46 chain: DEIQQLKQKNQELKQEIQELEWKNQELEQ

The next assay deals with T47, 4H797-bN.
T47 chain: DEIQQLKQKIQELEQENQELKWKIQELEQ

Another assay has as its target T48, 4H918-bN.
T48 chain: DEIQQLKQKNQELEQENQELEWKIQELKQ

A further assay has as its target T49, O13-bP.
T49 chain: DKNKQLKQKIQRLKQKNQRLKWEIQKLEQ

Turning to DEIAQLKQKNAELEQKIAELEWENAQLKQ [4H932-bA], the values for the interaction score with 4H932-bA, with 4H949-bA and with P1bHq were 0.694, -0.925 and -0.886, respectively.
As for DKNQELKKEIEELERENWELEKEIQELER [4H3601-bH], the interaction score was -0.759 with 4H3907-bH, -1.34 with 4H3601-bH, -1.38 with 4H797-bH and -1.44 with 4H4038-bH.
Take DKIQQLKQKNQELKQKIQELEWEIQELEQ [4H3041-bN]: the interaction score in the assay with 4H3381-bN was -1.06; in the assay with 4H3297-bN it was -2.23; with 4H796-bN, -1.35; in the assay with 4H56-bN it was -0.997; in the assay with 4H730-bN, -1.37; with 4H349-bN it was -1.54. The interaction score is 0.154 in the assay with P1bHq; -1.42 in the assay with 4H3364-bN; -1.42 with 4H932-bN; 0.754 in the assay with 4H3041-bN; -1.33 with 4H949-bN.
Consider DENAQLKQKIAELEQKIAELEWKNAQLEQ [4H1831-bA], for which the interaction score with 4H3926-bA is -0.904; with 4H2627-bA it was 1.11; with 4H575-bA, -0.581; with 4H968-bA, -0.46; with 4H780-bA it was -1.1; in the assay with 4H855-bA, 0.246. Moreover, the interaction score with 4H797-bA was -0.44; with 4H683-bA it was -1.5; with 4H2697-bA, -1.55; in the assay with 4H346-bA it was -0.307; with 4H4073-bA it was -0.475; in the assay with 4H918-bA, -0.817. The interaction score is 0.716 in the assay with 4H3112-bA; 0.133 in the assay with 4H2673-bA; -0.519 with 4H457-bA; 0.937 in the assay with 4H1831-bA; -0.824 with 4H953-bA; -0.589 with 4H2702-bA. In addition, the interaction score with 4H3112-bH is -0.386; in the assay with 4H3010-bA, 0.376; with 4H2586-bA, -0.446; with 4H754-bA, -0.649; with 4H3427-bA it was 0.113.
DEIQQLEQEIQELKQEIQELEWKNQELKQ [4H72-bN]: the interaction score is -0.234 in the assay with 4H908-bN; 0.334 with 4H72-bN; -1.48 with 4H754-bN; -0.727 with 4H953-bN; 0.619 with 4H883-bN; -0.25 in the assay with 4H967-bN. The interaction score is 0.632 with 4H797-bN, 0.713 with 4H918-bN and -0.283 with O13-bP.
